Literature values, collected in article PMC3145095.

Molecular target: CD8αα (Mus musculus) (UniProt P01731)
Sequence of UniProt P01731 (P01731 28-196): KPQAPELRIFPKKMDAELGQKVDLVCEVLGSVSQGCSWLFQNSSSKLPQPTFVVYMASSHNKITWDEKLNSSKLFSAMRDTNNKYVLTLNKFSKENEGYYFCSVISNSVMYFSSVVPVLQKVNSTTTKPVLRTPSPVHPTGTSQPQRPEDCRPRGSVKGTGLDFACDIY

Kd: 12 µM
Substance: Thymus leukaemia antigen (TL) (from UniProt P14432)
